Assay [1] has as its target yeast surface-displayed DARPin 3G146 variant 2-G4 (G150S). Description: flow cytometry on cells. A general note: In flow cytometry, cells or beads pass a laser one at a time.
The target in assay [2] is yeast surface-displayed DARPin 3G146 variant 2-H3 (G237S). The assay is described as follows: flow cytometry on cells.

With “EGFP-His6 (from UniProt P42212 1-238) (natural protein)”, the fold improvement of apparent binding affinity over 3G146 in assay [1] was found to be 8 fold; in assay [2], 28 fold.

The record behind these values is article doi:10.1101/2023.11.20.567881.
